*: point of attachment. Biotin = O=C1N[C@H]2[C@H](CS[C@H]2CCCCC(=O)*)N1; Ahx = NCCCCCC(=O)O
T1: R59Q-variant RGS12 PDZ domain GST-fusion protein (Homo sapiens, UniProt O14924, R59Q)
T1 construct: human RGS12 PDZ domain (aa 18–101 of UniProt O14924); purchased GenScript; host or cells: E. coli
T1 sequence (O14924 18-101 R59Q): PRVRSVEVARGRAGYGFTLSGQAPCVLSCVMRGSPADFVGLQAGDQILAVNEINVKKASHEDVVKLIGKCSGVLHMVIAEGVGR

T2: Wildtype human RGS12 PDZ domain GST-fusion protein (human, UniProt O14924 18-101)
T2 construct: human RGS12 PDZ domain, aa 18-101 of UniProt O14924; also called GST-RGS12 PDZ domain fusion protein; wildtype PDZ protein; not shown: GST, N-terminal, kept
T2 sequence (looked up): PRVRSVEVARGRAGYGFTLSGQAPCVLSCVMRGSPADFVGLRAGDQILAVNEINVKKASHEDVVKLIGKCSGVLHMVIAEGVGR

T3: Wildtype human RGS12 PDZ domain GST-fusion protein (human, UniProt O14924 18-101)
T3 chain: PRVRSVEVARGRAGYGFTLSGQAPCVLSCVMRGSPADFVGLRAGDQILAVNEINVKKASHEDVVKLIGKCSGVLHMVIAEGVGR

T4: R59Q-variant human RGS12 PDZ domain GST-fusion protein (human, UniProt O14924 18-101, R59Q)
T4 sequence: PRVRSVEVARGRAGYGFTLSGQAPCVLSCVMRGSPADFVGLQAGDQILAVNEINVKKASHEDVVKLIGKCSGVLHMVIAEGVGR


Assays:
[1] = biological target: T1, R59Q-variant RGS12 PDZ domain GST-fusion protein; test: SPR single-cycle kinetics (Alto), R59Q-variant PDZ domain; assay type: binding; settings: R59Q vs wildtype; peptide biosensors; N = 2-4
Description: Wildtype and R59Q-variant versions of the human RGS12 PDZ domain (aa 18–101 of UniProt O14924) were each cloned in frame with an N-terminal glutathione-S-transferase (GST) expression tag, expressed by E. coli fermentation, and purified by GST-affinity column and size-exclusion column chromatographies by GenScript. These recombinant GST-fusion proteins were stored at −80 °C in a storage buffer (150 mM NaCl, 10 mM Tris-HCl pH 7.6, 1 mM EDTA, 5 mM DTT, and 10% glycerol) prior to thawing and supplementation with 0.1% (final) Tween 20 for use in the SPR experiments.
Biotinylated peptides were separately immobilized onto streptavidin-coated gold nanosensor particles (Nicoya) in lane pairs. The reference sensor of the lane held either immobilized mNotch1 or rβ2AR peptide as an established negative control surface, and the test sensor held one of the candidate PDZ domain-interacting peptides. All on-board dilutions and experimental passages of analytes over immobilized peptides were performed with a running buffer consisting of phosphate-buffered saline (137 mM NaCl, 2.7 mM KCl, 4.3 mM disodium phosphate, 1.4 mM monopotassium phosphate; and pH 7.3, from Teknova) supplemented with 0.1% Tween 20 (Nicoya), […] (w/v) bovine serum albumin (BSA; Nicoya), and 3% glycerol (the latter to reduce bulk-shift readings when transitioning from running buffer to protein analyte injections). […] Each sensor was regenerated between each single-stack passage by the injection of a surface regeneration buffer (10 mM NaOH). Non-specific binding to the paired, negative control peptide-bound streptavidin surface was subtracted from each single-stack curve and then binding parameters of the on-rate (ka), off-rate (kd), and dissociation constant (KD) were calculated using the 1:1 Langmuir kinetics model with mass transport limitation (Alto software version 2.3.1; Nicoya). Observed maximal response units (Rmax) and calculated KD values for each single-stack injection were plotted using GraphPad Prism 10.

[2] = biological target: T2, Wildtype human RGS12 PDZ domain …; test: SPR; Alto 8 × 2 digital microfluidics SPR (Nicoya); biotinylated peptides immobilised on streptavidin-coated gold nanosensors; GST-RGS12 PDZ fusion protein as analyte, single-cycle kinetics, 111 nM-9 μM; PBS pH 7.3 with 0.1% Tween 20, BSA, 3% glycerol; mNotch1 or rβ2AR reference sensor subtracted; 1:1 Langmuir model with mass transport limitation; apparent rates, estimated KD; settings: both partners purified
[3] = biological target: T3, Wildtype human RGS12 PDZ domain …; test: SPR
[4] = biological target: T4, R59Q-variant human RGS12 PDZ domain …; test: SPR
[5] = biological target: T3, Wildtype human RGS12 PDZ domain …; test: SPR
[6] = biological target: T4, R59Q-variant human RGS12 PDZ domain …; test: SPR; remark: listed apart in the source

| KD of R59Q variant relative to wildtype (fold less than the wildtype) [1] | maximal binding signal (Rmax), R59Q in comparison to wildtype [1] | binding result [2] | Kd [3] [µM] | Kd [4] [µM] | koff [5] [s⁻¹] | koff [6] [s⁻¹] | Molecule |
| --- | --- | --- | --- | --- | --- | --- | --- |
| at least 2 fold | less maximal binding signal (Rmax) | – | – | – | – | – | biotin-Ahx-RTLRLKQPSTPTRTAV-carboxylic acid [TRTAV-COOH of MEK2] |
| – | – | binds | 0.45 | 1.28 | 0.000542 | 0.00193 | {Biotin-Ahx}-VGSSSGHTSTTL-OH (SMILES CC(C)C[C@H](NC(=O)[C@@H](NC(=O)[C@@H](NC(=O)[C@H](CO)NC(=O)[C@@H](NC(=O)[C@H](Cc1c[nH]cn1)NC(=O)CNC(=O)[C@H](CO)NC(=O)[C@H](CO)NC(=O)[C@H](CO)NC(=O)CNC(=O)[C@@H](NC(=O)CCCCCNC(=O)CCCC[C@@H]1SC[C@@H]2NC(=O)N[C@@H]21)C(C)C)[C@@H](C)O)[C@@H](C)O)[C@@H](C)O)C(=O)O, C-terminus of CXCR2; also called CXCR2 C-tail peptide TSTTL-COOH; CXCR2 TSTTL-COOH biosensor; source: synthetic peptide (GenScript)) [CXCR2 C-terminal peptide, biotin-Ahx-VGSSSGHTSTTL-carboxylic acid] |
| – | – | binds | – | – | – | – | {Biotin-Ahx}-RTLRLKQPSTPTRTAV-OH (SMILES CC(C)C[C@H](NC(=O)[C@H](CCCNC(=N)N)NC(=O)[C@H](CC(C)C)NC(=O)[C@@H](NC(=O)[C@H](CCCNC(=N)N)NC(=O)CCCCCNC(=O)CCCC[C@@H]1SC[C@@H]2NC(=O)N[C@@H]21)[C@@H](C)O)C(=O)N[C@@H](CCCCN)C(=O)N[C@@H](CCC(N)=O)C(=O)N1CCC[C@H]1C(=O)N[C@@H](CO)C(=O)N[C@H](C(=O)N1CCC[C@H]1C(=O)N[C@H](C(=O)N[C@@H](CCCNC(=N)N)C(=O)N[C@H](C(=O)N[C@@H](C)C(=O)N[C@H](C(=O)O)C(C)C)[C@@H](C)O)[C@@H](C)O)[C@@H](C)O, C-terminus of MEK2; also called MEK2 C-tail; TRTAV-COOH of MEK2; source: synthetic peptide (GenScript)) [MEK2 C-terminal peptide, biotin-Ahx-RTLRLKQPSTPTRTAV-carboxylic acid] |
| – | – | binds | 0.26 | 0.6 | 0.000383 | 0.00923 | {Biotin-Ahx}-IYIPEAQTRL-OH (SMILES CC[C@H](C)[C@H](NC(=O)CCCCCNC(=O)CCCC[C@@H]1SC[C@@H]2NC(=O)N[C@@H]21)C(=O)N[C@@H](Cc1ccc(O)cc1)C(=O)N[C@H](C(=O)N1CCC[C@H]1C(=O)N[C@@H](CCC(=O)O)C(=O)N[C@@H](C)C(=O)N[C@@H](CCC(N)=O)C(=O)N[C@H](C(=O)N[C@@H](CCCNC(=N)N)C(=O)N[C@@H](CC(C)C)C(=O)O)[C@@H](C)O)[C@@H](C)CC, C-terminus of SAPAP3; the last ten residues of the human 20-mer aa 960-979; also called SAPAP3 C-tail peptide AQTRL-COOH; source: synthetic peptide (GenScript)) [SAPAP3 C-terminal peptide, biotin-Ahx-IYIPEAQTRL-carboxylic acid] |
